pIC50, pKd: −log10 of the molar value.
Assays:
HLA-A*68:02 = test: IEDB peptide-MHC binding, purified MHC/competitive/radioactivity; filed as Kd, often an IC50 or EC50 that approximates it; ≥ and ≤ were set here for values at or beyond the usual limits of such assays
HLA-A*03:01 = test: IEDB peptide-MHC binding, purified MHC/competitive/fluorescence; ≥ and ≤ were set here for values at or beyond the usual limits of such assays
HLA-B*07:02 = test: IEDB peptide-MHC binding, purified MHC/competitive/radioactivity; filed as Kd, often an IC50 or EC50 that approximates it; ≥ and ≤ were set here for values at or beyond the usual limits of such assays
HLA-B*54:01 = test: as above
HLA-B*53:01 = test: as above
HLA-B*51:01 = test: as above
HLA-B*35:01 = test: as above
HLA-A*29:02 = test: IEDB peptide-MHC binding, purified MHC/competitive/fluorescence; filed as Kd, often an IC50 or EC50 that approximates it; ≥ and ≤ were set here for values at or beyond the usual limits of such assays
HLA-A*26:01 = test: IEDB peptide-MHC binding, purified MHC/competitive/radioactivity; filed as Kd, often an IC50 or EC50 that approximates it; ≥ and ≤ were set here for values at or beyond the usual limits of such assays; settings: source organism: Dengue virus 1 Brazil/97-11/1997
HLA-A*02:06 = test: as above
HLA-A*01:01 = test: as above; settings: source organism: Dengue virus 1 Brazil/97-11/1997
HLA-B*44:02 = test: IEDB peptide-MHC binding, purified MHC/direct/fluorescence; filed as Kd, often an IC50 or EC50 that approximates it; ≥ and ≤ were set here for values at or beyond the usual limits of such assays; settings: source organism: Influenza A virus (A/chicken/CA/375TR/2002(H6N2))
HLA-B*40:01 = test: as above
HLA-B*18:01 = test: as above
HLA-A*11:01 = test: IEDB peptide-MHC binding, purified MHC/competitive/fluorescence; ≥ and ≤ were set here for values at or beyond the usual limits of such assays
HLA-A*02:03 = test: IEDB peptide-MHC binding, purified MHC/competitive/radioactivity; filed as Kd, often an IC50 or EC50 that approximates it; ≥ and ≤ were set here for values at or beyond the usual limits of such assays
HLA-A*02:01 [1] = test: as above
HLA-A*02:02 = test: as above
HLA-B*08:01 = test: IEDB peptide-MHC binding, purified MHC/direct/fluorescence; filed as Kd, often an IC50 or EC50 that approximates it; ≥ and ≤ were set here for values at or beyond the usual limits of such assays; settings: source organism: Yersinia pestis CA88-4125
HLA-A*02:01 [2] = test: IEDB peptide-MHC binding, purified MHC/competitive/fluorescence; ≥ and ≤ were set here for values at or beyond the usual limits of such assays; settings: source organism: Sudan ebolavirus
HLA-A*24:02 = test: as above; settings: source organism: Sudan ebolavirus
HLA-A*24:03 = test: IEDB peptide-MHC binding, purified MHC/direct/fluorescence; filed as Kd, often an IC50 or EC50 that approximates it; ≥ and ≤ were set here for values at or beyond the usual limits of such assays; settings: source organism: Amur virus
[3] = source organism: Dengue virus 1 Brazil/97-11/1997
[4] = source organism: Sudan ebolavirus
[5] = source organism: Vaccinia virus WR
[6] = source organism: Influenza A virus (A/chicken/CA/375TR/2002(H6N2))
[7] = source organism: Burkholderia ambifaria AMMD
[8] = source organism: Zaire ebolavirus
[9] = source organism: Hepacivirus hominis
[10] = source organism: Trypanosoma cruzi
[11] = source organism: Dengue virus 3 Martinique/1243/1999
[12] = source organism: Triticum aestivum
[13] = source organism: SARS coronavirus Tor2

TSHNILVEV
pKd (HLA-A*68:02; [3]): 8.13

GLRKRSRRQ
pIC50 (HLA-A*03:01; [4]): 4.33

VPLPCQLMYA
pKd (HLA-B*07:02; [5]): 5.13 | pKd (HLA-B*54:01; [5]): 9.87 | pKd (HLA-B*53:01; [5]): 6.34 | pKd (HLA-B*51:01; [5]): 6.21 | pKd (HLA-B*35:01; [5]): 5.63

MTIHFFLNE
pKd (HLA-A*29:02; source organism: Entamoeba histolytica HM-1:IMSS): 6.72

MTTEDMLSV
pKd (HLA-A*26:01): 5.90 | pKd (HLA-A*68:02; [3]): 7.97 | pKd (HLA-A*02:06; [3]): 7.97 | pKd (HLA-A*01:01): 5.30

LPTLFGRGV
pKd (HLA-B*07:02; [5]): 8.08 | pKd (HLA-B*54:01; [5]): 8.70 | pKd (HLA-B*53:01; [5]): 6.02 | pKd (HLA-B*51:01; [5]): 8.22 | pKd (HLA-B*35:01; [5]): 5.89

REITFHGAK
pKd (HLA-B*44:02): ≤ 4.70 | pKd (HLA-B*40:01; [6]): 6.39 | pKd (HLA-B*18:01; [6]): 5.91

AELHAKGAY
pKd (HLA-B*40:01; [7]): ≤ 4.70 | pKd (HLA-B*18:01; [7]): 5.95

LVAFLRFLTI
pKd (HLA-A*68:02; source organism: Dengue virus 2 Jamaica/1409/1983): 6.99

VTGILQLPR
pIC50 (HLA-A*11:01; [8]): 6.44 | pIC50 (HLA-A*03:01; [8]): 5.17

VLSDFRTWL
pKd (HLA-A*02:03; [9]): 8.14 | pKd (HLA-A*02:01 [1]; [9]): 8.75 | pKd (HLA-A*02:02; [9]): 8.76 | pKd (HLA-A*68:02; [9]): 5.28 | pKd (HLA-A*02:06; [9]): 6.52

LMISGDLPQ
pKd (HLA-A*29:02; source organism: Sinorhizobium meliloti 1021): 7.43

LVGLWGAAAL
pKd (HLA-A*02:03; [10]): 7.02 | pKd (HLA-A*02:01 [1]; [10]): 6.16 | pKd (HLA-A*02:02; [10]): 7.05 | pKd (HLA-A*68:02; [10]): 5.28 | pKd (HLA-A*02:06; [10]): 6.40

FTILALFLA
pKd (HLA-A*68:02; [11]): 7.45 | pKd (HLA-A*02:06; [11]): 9.13

SMKTRTAWF
pKd (HLA-B*08:01): 8.15

IPEQSQCQAI
pKd (HLA-B*07:02; [12]): 5.23 | pKd (HLA-B*54:01; [12]): ≤ 4.59 | pKd (HLA-B*53:01; [12]): 5.41 | pKd (HLA-B*51:01; [12]): 6.11 | pKd (HLA-B*35:01; [12]): 5.22

CPAVAVHDF
pKd (HLA-B*07:02; [13]): 5.79 | pKd (HLA-B*54:01; [13]): 5.13 | pKd (HLA-B*53:01; [13]): 7.56 | pKd (HLA-B*51:01; [13]): 6.62 | pKd (HLA-B*35:01; [13]): 7.84

LIWTLDANI
pIC50 (HLA-A*02:01 [2]): 6.32 | pIC50 (HLA-A*24:02): ≤ 4.09 | pIC50 (HLA-A*11:01; [4]): ≤ 3.78

NTPEGIIPAL
pKd (HLA-A*68:02; [3]): 7.69

IPSLFIESSI
pKd (HLA-B*07:02; [5]): 6.17 | pKd (HLA-B*54:01; [5]): 6.37 | pKd (HLA-B*53:01; [5]): 5.70 | pKd (HLA-B*51:01; [5]): 5.72 | pKd (HLA-B*35:01; [5]): ≤ 4.16

MHTDLELDF
pKd (HLA-A*24:03): 5.31

VPAAIMMIL
pKd (HLA-B*07:02; [5]): ≤ 4.11 | pKd (HLA-B*54:01; [5]): ≤ 4.11 | pKd (HLA-B*53:01; [5]): 4.71 | pKd (HLA-B*51:01; [5]): ≤ 4.11 | pKd (HLA-B*35:01; [5]): 4.73

FTVVSNGAK
pIC50 (HLA-A*11:01; [8]): 5.82 | pIC50 (HLA-A*03:01; [8]): 4.75

QPFPQPQLPY
pKd (HLA-B*07:02; [12]): 6.26 | pKd (HLA-B*54:01; [12]): ≤ 4.39 | pKd (HLA-B*53:01; [12]): 6.59 | pKd (HLA-B*51:01; [12]): 5.86 | pKd (HLA-B*35:01; [12]): 8.03
